# From the nanobody polyreactivity screen of Harvey et al. (2022)
# Assay: yeast display, Sf9 membrane polyspecificity reagent, FACS + sequencing; frameworks hold sequencing errors
# Summary of the method: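 Polyreactivity labels are assigned by the sorting gate from which each nanobody was recovered. The gates were low and high (top ~1%), set on anti-HA fluorescence for expression and streptavidin fluorescence for reagent binding. Before sorting, galactose-induced (36–48 hours) yeast display cells were stained for 1 hour at 4 °C with 10% biotinylated, detergent-solubilized Sf9 membrane reagent.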
row,Sequence,polyreactivity (PSR sort gate)
1,QVQLVESGGGLVQAGGSLRLSCAASGSTLSGNAMGWYRQAPGKERELVAAIRWSGDITYYADSVKGRFTISRDNAKNTVYLQMNSLKPEDTAVYYCAATLGNRWFHYNYWGQGTQVTVSS,low polyreactivity
2,QVQLVESGGGLVQPRGSLRLSCAASGSILGHYAMGWYRQAPGKERELVAAISWRGGTTYYADSVKGRFTISRDNAKNTVYLQMNSLKPEDTAVYYCNADVWVYPYDYWGQGTQVTVSS,low polyreactivity
3,QVQLVESGVGLVKAGGSLRLSCAASGFTIRPYAMGWYRQAPGKERELVAAITSGDSTNYADSVKGRFTISRDNAKNTVYLQMNSLKPEDTAVYYCAVDGGEFTSYGYWGQGTQVTVSS,low polyreactivity
4,HVQLVESGGGLVQAGGSLRLSCAASGRIFPGYAMGWYRQAPGKERELVAGISNDASTNYADSVKGRFTISRDNAKNTVYLQMNSLKPEDTAVYYCAAEIYYLSVPRYDYWGQGTQVTVSS,low polyreactivity
5,QVQLVESGGGLVQAGGSLRLSCAASGSIFSVYAMGWYRPAPGKERELVASITNDGSTNYADSVKGRFTISRDNAKNTVYLQMNSLKPEDTAVYYCNADSYTKLDYWGQGTQVTVSS,low polyreactivity
6,QVQLVESGGGLVQAGGSLRLSCAASGHFFFYYTMGWYRPAPGKERELVAGITIGGSTNYADSVKGRFTISRDNAKHTVYVQMNSLKPEDTPVYYCNVVKYVYIYSYWEYYYCGQGTQVTVSS,low polyreactivity
7,QVQLVESGGGLVQAGGSLRLSCAASGFTFGWYTMGWYRQAPGKERELDAAISLNGGSTYYADSVKGRFTISRDNAKNTVYLQMTSLKPEDTAVYYCAIRYRWPYYPYVYWGQGTQVTVSS,low polyreactivity
8,QVQLVESGGGLVQAGGSLRLSCAASGRIFRFYAMGWYRQAPGKERELVASISSTGGSTYYADSVKGRFTISRDNAKNTVYLQMNSLKPEDTAVYYCNTVYGYVTTYGYWGQGTQVTVSS,high polyreactivity
9,QVQLVESGGGLVQAGGSLRLSCAASGSNFDLNAMGLYRQAPGKERELVAAISSGGGTYYADSVKGRFTIARDNAKNTVYLQMNSLKPEDTAVYYCNRVTRWTYNYWGQGTQVTVSS,high polyreactivity
10,QVQLVESGGGLVQAGGSLRLSCAASGSIFYEYDMGWYRQAPGKERELVAALDGSADSTYYADSVKGRFTISRDNAKNTVYLQMNSLKPEDTAVYYCNTRYFRWDTEYGYWGQGTQLTVSS,low polyreactivity
11,QVQLLESGGGLVQAGGSLRLSCASSGFIFAIYAMGWYRQAPGKERELVAAITSSSSTYADSVKGRFTISRDNAKNTVYLQMNSLKPEDTAVYYCAADTYSYRYSNDYWGQGTQVTVSS,low polyreactivity
12,QVQLVESGGGLVQAGGSLRLSCAASGRIFSYNAMGWYRPAPGKEREIVAGITKSGDDTFYADSVKGRFTISRDNAKNTVYLQMNSLKPQDTAVYYCAAASNPRYYTNRMVYWGQGTQVTVSS,low polyreactivity
13,QVQLVESGGGLVQAGGSLRLSCAASGFIIDGYAMGWYRQAPVKERELVAVISQRGSNTYYADSVKGRFTISRDNAKNTVYLQMNSLKPEDTAVYYCAARYKQGDSTGGRMNYWGQGTQVTVSS,high polyreactivity
14,QVQLVESGGGLVQAGGSLRLSCAASGRTFSNNAMGWYRQAPGKERELVAAISSTGGRTYYADSVKGRFTISRDNAKNTGYLQLNSLKPEDTAVYYCAATYVHYPSLGYDYWGQGTQVTVSS,high polyreactivity
15,QVQLVESAGGLVQAGGSLRLSCAASGIIFTSNTMGWYRQAPGKEREFVASINWNGSSTYADSVKGRFTISRDNAKNTVYLQMNSLKPEDTAVYYCAADWLGYQYGYWGQGTQVTVSS,low polyreactivity
16,QVQLVESGGGLVQAGGSLRLSCAASGSTFDSYGMGWYRLAPGKERELVAPSTSRGASTNYADSVKGRFTISRDTAKNTVYLQMTSLKPEDTAVYYCNREVPWWLYKYDGHDYWGQATQVTVSS,low polyreactivity
17,QVQLVESGGGLVQAGGSLRLSCAASGSIFYWYAMGWYRPAPGKERELVAAISYSGGSTYADSVKGRFTISRDNAKNTVYLQMNSLKPEDTAVYYCAVGYYRFGRFLGYYWGQGTQVTVSS,high polyreactivity
18,QVQLVESGGGLVQAGGSLRLSCAASGRTFPLYDMGWYRQAPGKERELVAAISLSGGRTYYADSVKGRFTISRDNAKNTVYLQMNSLKPEDTAVYYCAARGTLSAQVGIRRYDYWGQGTQVTVSS,low polyreactivity
19,QVKLVESGGGLVQAGGSLRLSCAASGSIFRYYAMGWYRQAPGKERELVAAMTASGGRTHYADSVKGRFTISRDNAKNTVYLQMNSLKLEDTAVYYCAADLYYAWYWKQHYDYCGQGTQVTVSS,high polyreactivity
20,QVQLVESGGGLVQAGGSLRLSCAASGRTFWYYAMGWYRQAPGKERELVAVINSSGGRTYYADSVKGRFTISRDNAKNTVYLQMNSLKPEDTAVYYCAAYRGVPSRYDYWGQGTQVTVSS,high polyreactivity
21,QVQLVESGGGLVQAGGSLRLSCAASGFIFRRYAMGWYRQAPGKERELVAVIRSSGGSTYYADSVKGRFTISRDNAKNTVYLQMNSLKPEDTAVYYCAAVDARSGGYYWTLRYYYWGQGTQVTVSS,high polyreactivity

row,Sequence,polyreactivity (PSR sort gate)
1,QVQLVESGGGLVQAGGSLRLSCAASGRNFVRYTMGWYRQAPGKERELVAAISGSGSSTFYADSVKGRFTISRDNAKNTVYLQMNSLKPEDTAVYYCAARVRRVARDPYDYWGQGTQVTVSS,high polyreactivity
2,QVQLVESGGGLVLAGGSLRLSCAASGSILTFYAMGWYRQAPGKERELVARITLIVARTNYADSVKARFTISRDNAKNTVYLQMNSLKPEDTAVYYCAKRDGDSGIGFGYWGQGTQVTVSS,low polyreactivity
3,QVQLVESGGGLVQAGGSLRLSCAASGSTFIDYAMGWYRQAPGKEREFVAGISSGDSTDYADSVKGRFTISRDNAKNTVYLQMNSLKPEDTAVYYCNADWNPTERWFYWYTPLGYDYWGQGTQVTVSS,low polyreactivity
4,QVQLVESGGGLVQAGGSLRLSCAASGSIFGYNAMGWYRQAPGKERELVAAISLTTGSTYYADSVKGRFTISRDNAKNTVYLQMNCLNPEDTAVYYCAAVDADYYYWGQGTQVTVSS,high polyreactivity
5,QVHLVESGGGLVQAGGSLRLSCAATGSTFTINAMGWYRQAPGKERELVAAINDGDDTYYADSVKGRFTISRDNAKNTVYLQMNSLKPEDTAVYFCAADIIYGYEVYTYTSDYWGQGTQVTVSS,low polyreactivity
6,QVQLVESGGGLVQAGGSLRLSCADSGRIFSSNAIGWYRQAPGQERELVASISSTGSTKYADSVKGRFTISRDNAKNTVYVQMNSLKPEDTAVYYCAAGSYLWHFTFDYWGQGTQVTVSS,low polyreactivity
7,QVQLVESGGCLVQAGGSLRLICAASGGLFGTYTMGWYRQAPGKERELVAAIRSSSGRTYYADSVKGRFTISRDNAKNTVYLQMNILKPEDTAVYYCNAKYYGYRVGKYYPFGYWGQGTQVTVSS,high polyreactivity
8,QVQLVESGGGLVQAGGSLRLSCAASGSTFGFYAMGWYRQAPGKERELVAVISSGDSTYYADSVKGRFTISRDNAKKTVYLQMNSLIPEDTAVDYCAKDALVIDGGGGYDYWGQGTQVTVSS,low polyreactivity
9,QVQLVESGGGLVHAGGSLRLSCAASGSTFNYYAMGWYRQAPGKERELVAAIDWSGGSTYYADSVKGRFTISRDNAKNTVYLQMNSLKPEDTAVYYCAARTYDYSYRSYDYWGQGTQVTVSS,low polyreactivity
10,QVQVVESGGGLVQAGGSLRLSCAASGSTFFFYAMGWYIHAPGKERELVAAISSTGRKYYADSVKGRFTISRDNAKNTVYLQMNSLTPEDTAVYYCAARIYSGYSYWGQCTQVTVSS,high polyreactivity
11,QVQLVESGGGLVQAGGSLSLSCAASGRIFRYNAMGWYRQAPGKERELVAGINGRSGSTTYADSVKGRFTISRDNAKNTVYLQMNSLKPEDTAVYYCAIVYGGYHYAFRSSRGMGYWGQGTQVTVSS,high polyreactivity
12,QVQLVESGGGLVQAGGSLRLSCAASGFTFRFYAMGWYRQAPGKERELVAGISSSGGTTYYADSVKGRFTISRDNAKNTVYLQMNSLKPEDTAVYYCNRRFLPAEQYTKKYYYWGQGTQVTVSS,high polyreactivity
13,QVHLQESGGGLEQAGGSPRLSCAASDNIFPDSVMCWYRQAPGKERELVATIGFGATTNYADSVKGRFTISRDNAKKTVFLQMNSLKPEDTAVYYCAADTLNYEYFCYWGQGTQVTVRS,low polyreactivity
14,QVQLVESGGGLVQAGGSLRLSCAASGRTFYYYAMGWYRQAPGKERELVASISSSGRTYYADSVKGRFTISRDNAKNTVYLQMNSLKPEDTAVYYCAKVWSSSYYRYGYWGQGTQVTVSS,high polyreactivity
15,QVQLVESGGGLVQAGGSLRLSCAASGSISDVYAMGWYRQAPGKERELVAAYADSVKGRFTISRDNAKNTVYLQMNCLKPVDTAVYYCNFVETSQELGWQAFDYWGQGTQVTVSS,low polyreactivity
16,QVQLVESGGGLVQAGGSLRLSCAASGFTFYTNAMGWYRPAPGKEREFVAAISFSGGTYYADSVKGRFTISRDNAKNTVYLQMNSLKPEDTAVYYCNARYPRYYRGVIQYDYWGQGTQVTVSS,low polyreactivity
17,QVQLVESGGGLVQAGGSLRLSCAASGGNFWIYTMGWYTQAPGKERELVASITRGGSTYADSVKGRFTISRDKAKNTVYLQMNSLKPEDTAVYYCNAEFRYPWFRWEYDHWGQGTQVTVSS,low polyreactivity
18,QVQLVESGGGLVQAGGSLRLSCAASGSTFKRYAMGWYRQAPGKDRELVAAIRRGGITNYADSVKGRFTISRDNAKNTVYLQMNSLKPEDTAVYYCAKDGVTYPYSYEYDYWGQGTQVTVSS,low polyreactivity
19,QVQLVESGGGLVQAGGSLRLSCAASGSTFYGYAMGWYRQAPGKERELVAAITRSGGSTYYADSVKGRFTISRDNAKNTVYLQMNSLKPEDTEVYYCNKYGYKGGVGYDYWGQGTQVTVSS,high polyreactivity
20,QVQLVESGGGLVQAGGSLRLSCAASGSICGTYAMGWYRQAPGKERELVARITRGVSTNYADSVKGRFTISRDNAKNTVYLQMTSLKPEDTAVYYCAAESGNRYEYWGQGTQVTVSS,low polyreactivity
